From the Human Domainome abundance scans (Beltran et al. 2025)
± gives the uncertainty stated by the source.

B1: Membrane-associated guanylate kinase, WW and PDZ domain-containing protein 2, residues 296 to 340; numbered along this chain, Q86UL8 (parent)
chain: EDNEEPDPLPDNWEMAYTEKGEVYFIDHNTKTTSWLDPRLAKKAK
B2: Poly(rC)-binding protein 1, residues 278 to 350; numbered along this chain, Q15365 (parent)
chain: TQTTHELTIPNNLIGCIIGRQGANINEIRQMSGAQIKIANPVEGSSGRQVTITGSAASISLAQYLINARLSSE

Variants of: B1
Assay: abundance fitness (aPCA) (normalised: wild type 0, dead -1); higher = more abundant; growth selection in yeast, the domain comes from the species named
Conditions: Homo sapiens

Variant	abundance fitness
P8S	-0.056 ± 0.056
P8E	-0.069 ± 0.056
P8M	0.019 ± 0.074
P8I	-0.156 ± 0.096
P8A	-0.014 ± 0.054
P8H	-0.105 ± 0.058
P8L	0.021 ± 0.058
P8T	-0.035 ± 0.059
P8R	0.052 ± 0.062
P8D	-0.121 ± 0.093
P8G	-0.03 ± 0.044
P8Y	-0.228 ± 0.12
M15C	-0.127 ± 0.095
D7A	0.185 ± 0.077
D7L	0.04 ± 0.07
D7S	0.04 ± 0.07
D7Q	0.054 ± 0.12
D7E	-0.008 ± 0.056
D7R	0.044 ± 0.058
D7V	0.134 ± 0.06
D7G	0.104 ± 0.046
D7W	0.01 ± 0.057
P10S	-0.47 ± 0.06
P10Y	-0.508 ± 0.061
P10G	-0.436 ± 0.041

Variant	abundance fitness
P10T	-0.468 ± 0.063
P10N	-0.465 ± 0.052
P10L	-0.449 ± 0.054
P10W	-0.469 ± 0.046
P10M	-0.166 ± 0.32
P10V	-0.54 ± 0.044
P10F	-0.615 ± 0.091
P10C	-0.654 ± 0.13
P10K	-0.498 ± 0.072
P10I	-0.637 ± 0.069
P10A	-0.528 ± 0.055
P10D	-0.341 ± 0.045
P10Q	-0.469 ± 0.087
P10E	-0.376 ± 0.051
P10R	-0.532 ± 0.04
P10H	-0.614 ± 0.061
P6S	0.003 ± 0.049
P6E	-0.138 ± 0.061
P6A	-0.001 ± 0.041
P6N	-0.025 ± 0.064
P6R	0.029 ± 0.041
P6G	-0.004 ± 0.037
P6Y	-0.017 ± 0.054
P6I	-0.088 ± 0.061
P6C	-0.081 ± 0.04

Variant	abundance fitness
P6L	0.014 ± 0.044
P6W	0.043 ± 0.046
P6V	0.034 ± 0.044
P6D	-0.266 ± 0.05
P6H	0.091 ± 0.068
E14W	-1.04 ± 0.14
E14V	-0.264 ± 0.048
E14N	-0.241 ± 0.057
E14A	-0.47 ± 0.18
E14S	-0.083 ± 0.097
E14R	-0.415 ± 0.06
E14Q	0.032 ± 0.12
E14T	-0.162 ± 0.084
E14L	-0.561 ± 0.069
E14F	-0.705 ± 0.1
E14D	-0.097 ± 0.23
N3F	-0.029 ± 0.41
N3S	0.021 ± 0.049
N3Y	0.037 ± 0.08
N3R	0.157 ± 0.053
N3M	0.083 ± 0.055
N3H	0.058 ± 0.097
N3C	-0.031 ± 0.2
N3G	-0.081 ± 0.059
N3Q	0.055 ± 0.06

Variant	abundance fitness
N3D	-0.258 ± 0.061
N3E	-0.173 ± 0.048
N3P	-0.109 ± 0.092
N3W	0.059 ± 0.055
N3V	-0.042 ± 0.052
N3A	-0.099 ± 0.059
N3L	0.009 ± 0.045
N12C	-0.163 ± 0.12
N12D	-0.136 ± 0.064
N12R	-0.044 ± 0.051
N12E	-0.303 ± 0.12
N12T	-0.224 ± 0.093
N12M	-0.292 ± 0.072
N12V	-0.703 ± 0.14
N12S	-0.199 ± 0.077
N12G	0.088 ± 0.061
N12W	-0.271 ± 0.091
E4L	0.03 ± 0.096
E4G	0.1 ± 0.07
E4A	0.016 ± 0.056
E4S	0.078 ± 0.089
E4V	0.027 ± 0.044
E4Q	0.306 ± 0.11
E4R	0.109 ± 0.056
E4P	0.138 ± 0.18

Variant	abundance fitness
E4C	-0.005 ± 0.1
E1Y	0.094 ± 0.12
E1G	0.009 ± 0.048
E1L	-0.023 ± 0.077
E1P	0 ± 0.11
E1V	0.035 ± 0.046
E1S	-0.154 ± 0.082
E1I	-1.23 ± 0.15
E1H	-0.109 ± 0.31
E1K	0.058 ± 0.079
E1M	-0.067 ± 0.07
E1R	0.128 ± 0.063
W13V	-0.32 ± 0.17
W13R	-0.642 ± 0.087
W13G	-0.787 ± 0.054
W13L	-0.385 ± 0.056
W13S	-0.556 ± 0.069
D11T	0.042 ± 0.056
D11R	0.032 ± 0.043
D11H	-0.029 ± 0.062
D11Q	0.091 ± 0.15
D11L	0.073 ± 0.063
D11V	-0.064 ± 0.051
D11P	-0.099 ± 0.11
D11E	0.033 ± 0.052

Variant	abundance fitness
D11S	0.421 ± 0.18
D11G	-0.096 ± 0.043
D11W	-0.074 ± 0.044
D11A	0.007 ± 0.061
D11M	-0.015 ± 0.098
D11N	-0.011 ± 0.07
D11K	-0.04 ± 0.06
L9S	-0.453 ± 0.5
D2N	0.072 ± 0.053
D2V	0.074 ± 0.05
D2Y	0.063 ± 0.4
D2L	0.072 ± 0.064
D2A	0.125 ± 0.071
D2W	-0.029 ± 0.064
D2K	0.116 ± 0.066
D2R	0.05 ± 0.054
D2C	0.256 ± 0.12
D2E	-0.131 ± 0.15
D2S	0.068 ± 0.07
D2P	-0.01 ± 0.11
D2Q	0.08 ± 0.14

Variants of: B2
Assay: as above
Conditions: Homo sapiens

Variant	abundance fitness
L65A	0.076 ± 0.056
L65K	-0.422 ± 0.25
L65G	-0.416 ± 0.056
L65R	-0.689 ± 0.1
L65S	-0.582 ± 0.13
L65Y	-0.093 ± 0.13
L65M	-0.36 ± 0.18
L65W	-0.166 ± 0.066
L65T	-0.462 ± 0.14
L65P	-0.779 ± 0.25
L65V	-0.789 ± 0.18
L65E	-0.191 ± 0.08
L65Q	-0.442 ± 0.14
L65D	-0.419 ± 0.23
Y64C	0.195 ± 0.09
Y64D	0.411 ± 0.072
Y64Q	0.14 ± 0.098
Y64L	-0.031 ± 0.078
Y64H	0.064 ± 0.14
Y64W	-0.209 ± 0.11
Y64N	0.328 ± 0.082
Y64R	0.28 ± 0.043
Y64F	-0.266 ± 0.23
Y64S	0.24 ± 0.05

Variant	abundance fitness
Y64K	0.233 ± 0.074
Y64E	0.298 ± 0.053
Y64M	-0.098 ± 0.11
Y64T	0.287 ± 0.059
Y64P	-0.312 ± 0.13
Y64G	0.212 ± 0.038
Y64V	0.121 ± 0.05
L70N	-0.465 ± 0.48
L70I	-0.217 ± 0.36
L70V	-0.05 ± 0.15
L70S	-0.614 ± 0.34
L70K	-0.378 ± 0.46
L70M	-0.228 ± 0.26
L70W	-0.521 ± 0.29
L70R	-0.53 ± 0.22
L70P	-0.499 ± 0.25
A68G	-0.122 ± 0.056
A68C	0.271 ± 0.14
A68M	-0.032 ± 0.1
A68Q	0.14 ± 0.11
A68F	-0.459 ± 0.35
A68N	0.163 ± 0.14
A68E	0.21 ± 0.081
A68V	-0.185 ± 0.07

Variant	abundance fitness
A68R	-0.001 ± 0.061
A68I	-0.296 ± 0.21
A68W	-0.581 ± 0.17
A68H	0.188 ± 0.2
A68S	0.048 ± 0.078
A68L	-0.206 ± 0.084
S71K	-0.03 ± 0.09
S71P	0.024 ± 0.06
S71A	-0.037 ± 0.051
S71G	-0.062 ± 0.049
S71M	0.105 ± 0.074
S71H	-0.371 ± 0.28
S71Y	-0.258 ± 0.14
S71V	-0.14 ± 0.061
S71D	-0.044 ± 0.1
S71I	-0.434 ± 0.24
S71Q	-0.194 ± 0.11
S71R	-0.056 ± 0.041
S71W	-0.195 ± 0.075
S71T	-0.092 ± 0.068
S71L	-0.184 ± 0.054
S71F	-0.21 ± 0.14
E73C	-0.14 ± 0.17
E73V	0.182 ± 0.17

Variant	abundance fitness
E73R	-0.019 ± 0.12
E73P	-0.161 ± 0.41
E73W	-0.325 ± 0.45
E73D	0.212 ± 0.2
E73M	0.245 ± 0.17
E73L	-0.004 ± 0.19
E73A	0.078 ± 0.42
E73F	0.315 ± 0.48
E73T	-0.03 ± 0.29
E73G	-0.016 ± 0.1
E73S	0.302 ± 0.21
S72D	-0.107 ± 0.25
S72Y	-0.152 ± 0.28
S72C	-0.052 ± 0.16
S72V	-0.072 ± 0.094
S72R	0.123 ± 0.077
S72Q	-0.401 ± 0.26
S72P	-0.562 ± 0.38
S72K	-0.072 ± 0.22
S72T	0.222 ± 0.087
S72A	-0.039 ± 0.093
S72G	-0.031 ± 0.071
S72N	0.161 ± 0.23
S72E	0.222 ± 0.11

Variant	abundance fitness
S72I	-0.448 ± 0.39
S72M	-0.058 ± 0.13
S72H	-0.07 ± 0.2
S72L	-0.114 ± 0.088
L61P	-0.943 ± 0.16
L61T	0.139 ± 0.044
L61M	0.001 ± 0.065
L61W	-0.238 ± 0.054
L61K	0.266 ± 0.039
L61V	-0.052 ± 0.041
L61S	0.084 ± 0.039
L61Q	0.111 ± 0.044
L61N	-0.278 ± 0.13
L61R	0.253 ± 0.033
A62R	-0.734 ± 0.083
A62D	-0.711 ± 0.24
A62G	-0.622 ± 0.071
A62P	-0.606 ± 0.1
A62W	-0.882 ± 0.31
A62Q	-0.78 ± 0.29
A62C	-0.768 ± 0.23
A62E	-0.902 ± 0.15
A62T	-0.794 ± 0.12
A62M	-0.948 ± 0.16

Variant	abundance fitness
A62K	-0.888 ± 0.14
A62V	-0.448 ± 0.07
A62N	-0.828 ± 0.4
A62F	-0.657 ± 0.26
I66M	-0.094 ± 0.16
I66H	0.299 ± 0.49
I66V	-0.285 ± 0.1
I66R	-0.996 ± 0.23
I66Q	-1.16 ± 0.46
I66W	-1.2 ± 0.35
I66A	-0.438 ± 0.1
I66P	-0.459 ± 0.15
I66C	-0.188 ± 0.2
I66F	-0.414 ± 0.22
I66G	-0.594 ± 0.13
I66L	-0.076 ± 0.13
I66S	-0.721 ± 0.2
Q63A	-0.077 ± 0.045
Q63I	0.064 ± 0.12
Q63F	-0.175 ± 0.12
Q63W	-0.28 ± 0.082
Q63P	-1.17 ± 0.27
Q63C	-0.078 ± 0.11
Q63L	0.116 ± 0.06

Variant	abundance fitness
Q63K	0.223 ± 0.069
Q63Y	-0.469 ± 0.22
Q63D	0.091 ± 0.12
Q63T	0.006 ± 0.053
Q63H	-0.124 ± 0.23
Q63E	-0.002 ± 0.061
Q63G	-0.264 ± 0.058
Q63M	-0.04 ± 0.07
Q63V	-0.019 ± 0.046
N67W	-0.208 ± 0.078
N67R	-0.147 ± 0.057
N67P	-0.782 ± 0.26
N67Q	-0.32 ± 0.11
N67F	0.034 ± 0.18
N67A	-0.152 ± 0.079
N67H	-0.146 ± 0.13
N67M	-0.135 ± 0.089
N67K	-0.137 ± 0.12
N67T	-0.148 ± 0.12
N67D	0.066 ± 0.099
N67I	-0.194 ± 0.22
N67C	-0.193 ± 0.26
N67S	-0.019 ± 0.072
N67E	-0.082 ± 0.075

Variant	abundance fitness
N67Y	0.002 ± 0.13
N67V	-0.504 ± 0.11
N67G	-0.082 ± 0.051
N67L	-0.18 ± 0.079
R69I	-0.258 ± 0.24
R69C	-0.344 ± 0.18
R69A	-0.067 ± 0.1
R69S	-0.081 ± 0.096
R69T	-0.079 ± 0.093
R69M	-0.414 ± 0.21
R69V	-0.479 ± 0.14
R69L	-0.328 ± 0.11
R69G	-0.626 ± 0.14
R69F	0.355 ± 0.26
R69P	-0.701 ± 0.22
R69H	-0.405 ± 0.17
R69K	0.119 ± 0.12
R69Q	-0.016 ± 0.18
R69W	-0.596 ± 0.18
R69E	-0.371 ± 0.16
